1 molecule from EP2379590B1 (Development Center for Biotechnology, dated 2018) can be followed below.

What all share (test): cell-based or functional assay
The target of test [1] is glycoprotein D of HSV-2 00040 (clinical strain), on infectious virus (HSV-2 (clinical strain 00040)).
For test [2], the target named is glycoprotein D of HSV-1 KOS, on infectious virus (HSV-1 (KOS strain), UniProt A1Z0Q5 26-394).
Test [3] deals with glycoprotein D of HSV-2 186, on infectious virus (HSV-2 (strain 186)).
Test [4] deals with glycoprotein D of HSV-1 00410 (clinical strain), on infectious virus (HSV-1 (clinical strain 00410)).

glycoprotein D of HSV-1 KOS, on infectious virus, sequence (A1Z0Q5 26-394 limits assumed): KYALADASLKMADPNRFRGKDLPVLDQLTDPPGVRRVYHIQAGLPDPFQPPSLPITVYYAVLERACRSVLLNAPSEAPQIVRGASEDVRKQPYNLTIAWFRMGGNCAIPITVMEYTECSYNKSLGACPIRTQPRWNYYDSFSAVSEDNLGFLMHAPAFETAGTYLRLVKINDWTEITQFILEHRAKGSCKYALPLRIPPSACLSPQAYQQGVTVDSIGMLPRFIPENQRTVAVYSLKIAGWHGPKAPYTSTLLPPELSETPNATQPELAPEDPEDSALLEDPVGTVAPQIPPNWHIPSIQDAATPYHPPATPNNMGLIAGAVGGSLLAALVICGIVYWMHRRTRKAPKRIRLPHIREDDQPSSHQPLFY

B1: scFv E425 (scFv, not shown: small tags and cut ends)
scFv: QVQLQQSGAGVKKPGSSVRVSCSASGGTLRTYALSWVRQVPGQGFEWMGRIIPMFGKTDYAQKFQGRLSITADKSMDTGFMELTSLTSEDTAVYYCARDLTTLTSYNWLDIWGQGTLVTVSSGGGGSGGGGSGGGGSETTLTQSPGTLSLSPGERATLSCRASQSVSSNYLAWYQKKPGQAPRLLIYGASSRATGIPDRFSGSGSGTDFTLTINRLEPEDFAVYYCQQYGRSPTFGQGTKVEIKR
As to B1, the “IC50, plaque reduction assay in Vero cells (HSV-2 00040)” value in test [1] was 1.16 nM. Moreover, the “IC50, plaque reduction assay in Vero cells (HSV-1 KOS)” value in test [2] stood at 2.2 nM. Also, the “IC50, plaque reduction assay in Vero cells (HSV-2 186)” value in test [3] was determined as 4.5 nM. In addition, the “IC50, plaque reduction assay in Vero cells (HSV-1 00410)” value in test [4] came out at 1.8 nM.
